From the nanobody polyreactivity screen of Harvey et al. (2022)

Assay: yeast display, Sf9 membrane polyspecificity reagent, FACS + sequencing; frameworks hold sequencing errors
Method in brief: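 In a synthetic yeast display library (Saccharomyces cerevisiae BJ5465), nanobody expression was induced with galactose for 36–48 hours. FACS gates were set low and high (top ~1%) using anti-HA fluorescence for expression and streptavidin fluorescence for binding of the Sf9 membrane reagent. Each polyreactivity label is drawn from the gate of origin.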

## QVQLVESGGGLVQAGGSLRLSCAASRFIFSSYVMGRYRQAPGKERELVAASRSGGSTNYADSVKGRFTISRDNAKNTVYLQMNSLKPEDTAVYYCAARGRLGQGYYYWGQGTLVTVSS
  polyreactivity (PSR sort gate): low polyreactivity

## QVQLVESGGGLVQAGGSLRLSCAASGRTFWNYAMGWYRQAPGKERDLVAVIRFSDGSTYYAYSVKGRFTISRDNAKNTVYLHMNSLKPEDTAVYYCAAKGPRRWGSGFDYWGQGTQVTVSS
  polyreactivity (PSR sort gate): low polyreactivity

## QVQLVESGGGLVQAGGSLRLSCAASGITFPYYAMGWYRQAPGKERELVAAITRSGSSTYYADSVKGRFTISRDNAKNTVYLQMNSLKPEDTAVYYCAAKRGAGEDYWGQGTQVTVSS
  polyreactivity (PSR sort gate): high polyreactivity

## QVQLVESGGGLVQAGGSLRLSCAASGSIFERNAMGWYRQAPGKERELVAVITGSGGSTYYADSVKGRFTISRDNAKNTVYLQMNSLKPEDTAVYYCAAPVHTASGRWVPGYYYWGQGTQVTVSS
  polyreactivity (PSR sort gate): high polyreactivity

## QVQLVESGGGLVQAGGSLRLSCAASGIICPENAMGWYRQAPGKERELVAAISKSGGRTYYADSVKGRFTISRDNAKNTVYLQMNSLKPEDTAVYYCAKVPYAYSRDRSAEDSWGQATQVTVSS
  polyreactivity (PSR sort gate): high polyreactivity

## QVQLVESGGGLVQAGGSLRLSCAPSGFIFSRYAMGWYRQAPGKERELVATITSSGGSTYYADSVKGRFTISRDNAKNTVYLQMNSLKPEDTAVYYCNAKISIRWHYGYYYWGQGTQVTVSS
  polyreactivity (PSR sort gate): high polyreactivity

## QVQLVESGGGLVQAGGSLRLSCAASGFIFTKNAMGWYRQAPGKDRVLVAAITSSGGNTYYADSVKRRFTIARDNAKNTVYLQMNSLKPEDTAVYYCAASRFLRMYWGQGTQVTVSS
  polyreactivity (PSR sort gate): high polyreactivity

## QVQLVESGGGLVQAGGSLRLSCAASGRTFYKNAMGWYRQAPGKERELVARISRGGSTNYADSVKGRFTISRDNAKNTVYLQMNSLKPEDTAVYYCAKEYGTHGKTYDYWGQGTQVTVSS
  polyreactivity (PSR sort gate): high polyreactivity

## QVQLVESGGGLVQAVGSLRLSCAASGFISKYYAMGWYRQAPGKERELVASISRDGSTSYADSVKGRFTISRDNAKNTVYLQMNSLKPEDTAVYYCAAPSYRTRYYYWGQGTQVTVSS
  polyreactivity (PSR sort gate): high polyreactivity

## QVQLVESGGGLVQAGGSLRLSCAASGSTFYTNAMGWYRQAPGKERELVAAISGSGGSTYYADSVKGRFTISRDNAKNTVYLQMNSLKPEDTAVYYCAARSRYYDTRFDYWGQGTQVTVSS
  polyreactivity (PSR sort gate): low polyreactivity

## QVQLVESGGGLVQAGGSLRLSCAASGRTFTRYAMGWYRQAPGKERELVAAITSSGRTYYADSVKGRFTISRDNAKNTVYLQMNSLKPEDTAVYYCAKYRANALNYANRGAGDYWGQGTQVTVSS
  polyreactivity (PSR sort gate): high polyreactivity

## QVQLVESGGGLVQAGGSLRLSCAASGRTFSYNAMGWYRQAPGKERELVAAITSSGGGTSYADSVKGRFTISRDNAKNTVYLQMNSLKPEDTAVYYCNRVLPHPDGYGVGARGYWGQGTQVTVSS
  polyreactivity (PSR sort gate): high polyreactivity

## QVQLVESGGGLVQAGGSLRLSCAASGSTFGFYAMGWYRQAPGKERELVAVISSGGGTNYADSVKGRFTISRDNAKNTVYLQMNSLKPEDTAVYYCAASRFALSGGYDYWGQGTQVTVTS
  polyreactivity (PSR sort gate): low polyreactivity

## QVQLVESGGGLVQAGGSLRLSCAASGRIFHYYAMGWYRQAPGKERELVAAISWSGGSTYYADSVKGRFTISRDNAKNTVYLQMNSLKPEETAVYYCAARYVKTKGSFVVGYGYWGQGTQVTLSS
  polyreactivity (PSR sort gate): high polyreactivity

## QVHLVESGGGLVQAAGSLRLSCAASGRTFNPNAIGWYRQAPGKERELVAVINVGGRTNYADSVKGRFTISRDNAKNTVYLQMNSLKPEDSAVYYCAAISSRNFDYWGQGTQVTVSS
  polyreactivity (PSR sort gate): high polyreactivity

## QVQLVESGGGLVQAGGSLRLSCAATGSTIRSYGMGWYRQAPGKERELVASISWSGGSTYYADSVKGRFTISRDNAKNTVYLQMNSLKPEDTAVYYCAAGTLYSLYFGRHGYWGQGTQVTVSS
  polyreactivity (PSR sort gate): low polyreactivity

## QVQLVESGGGLVQAGGSLRLSCAASGRTFTGYTKGWYRQAPGKEREFVAAISSNGGRTYYADSVKGRFTISRDNAKNTVYLQMNSLKPEDTAVYYCAARYTFWGQGTQVTVSS
  polyreactivity (PSR sort gate): high polyreactivity

## QVQLVESGGGLVQAGGSLRLSCAASGIIFRPYTMGWYRQAPGKERELVAAISQSGGRTYYADSVKGRFTISRDNAKNTVYLQMNSLKPEDTAVYYCNVLGSYSYYGGNDLWYYYWGQGTQVTVSS
  polyreactivity (PSR sort gate): high polyreactivity

## QVQLVESGGGLVQAGGSLRLSCAATGGTFTFYAMGWYRQAPGKERELVATINWSGGSTYYADSVKGRFTISRDNAKITVYLQMNSLKPEDTAVYYCNAAWPYKSVEYWGQGTQVTVSS
  polyreactivity (PSR sort gate): low polyreactivity

## QVQLVESGGGLVQAGGSLRITCAASGSIFGTNAMGWYRQAPGKERELVAAIDGGSTTYYADCVKGRFTISRDNAKNTVYLQMNSLKPEDTAVYYCAADGTRYLNYEGYAGYEYWGQGTQETVSS
  polyreactivity (PSR sort gate): low polyreactivity

## QVQLVESGGGLVQAGGSLRLSCAASGSTFVYNAMGWYRPAPGKERELVAAISARTGRTYYADSVKGRFTISRDNAKNTVYLQMNSLKPEDTAVYYCAAGLIVGRFLRYDYWGQGTQVTVSS
  polyreactivity (PSR sort gate): high polyreactivity

## QVQLVESGGGLVQAGGSLRLSCAASGFTFPSYAMGWYRQAPGKERELVAAISYRGGRTYYADSVKGRFTISRDNAKNTVYLQMNSLKPEDTAVYYCAAKGWYFGYGRYGYWGQGTQVTVSS
  polyreactivity (PSR sort gate): high polyreactivity

## QVQLVESGGGLVQAGGSLRLSCAASGRTFSGYAMGWYRQAPGKERELVAAISSGGGSTYYADSVKGRFTISRDNAKNSVYLQMNSLKPEDTAVYYCAADGYPGDYDYWGQGTQVTVSS
  polyreactivity (PSR sort gate): low polyreactivity

## QVQRVESGGGLVQAGGSLRLRCAASGRTFGYYAMGWYRHAPGKERVLVAAINSRGGSTYYADPVKGRFTISRDNAKNTVYLQMNSLKPEDTAVYYCAKRWCSYGSYSLYDYWGQGTQVTVSS
  polyreactivity (PSR sort gate): high polyreactivity

## QVQLVESGGGLVQAGGSLRLSCAASGSIFKYNAMGWYRQAPGKERELVAAIRWSGVGTRYADSVKGRFTISRDNAKNTVYLQMNSLKPEDTAVYYCAADVTKYHDGHEYDYWGQGTQVTVSS
  polyreactivity (PSR sort gate): low polyreactivity

## QVQLVESGGGLVQAGGSLRLSCAASGSTFFHNAMGWYRQAPGKERELVAAINWNGGSTYYADSVKGRFTISRDNAKNTVYLQMNSLKPEDTAVYYCAADIYTYLGAYYIGYYWGQGTQVTVSS
  polyreactivity (PSR sort gate): low polyreactivity

## QVQLVESGAGIVQAGGSLRLSCAASVSTFQSYAMGLYRPAPGKERELFAAISFSGGSTYYADSVKGRFTISRDNAKNTVYLQMNSLKPEDTAVYYCAKRGWVYFHGYDYWGQGTQVTVSS
  polyreactivity (PSR sort gate): low polyreactivity

## QVQLVESAGGLVQAGGSLRLSCAASGSTFQYYAMGWYRLAPGKDRELVATITLIAGSTYADSVKGRFTISRDNAKNTVYLQMNSLNPEDTEVYYCAADDGGYETPELLYGGRGDDWGQGTQVTVSS
  polyreactivity (PSR sort gate): low polyreactivity

## QVQLVESVGGLVQAGGSLRLSCAASGRIFWNYAMGWYRQATGKERELVASISYRGGSTYYADSVKGRFTISRDNAKNTVYLQMNSLKPEDTAVYYCAARTRQARRTDYGYWGQGTQVTVSS
  polyreactivity (PSR sort gate): high polyreactivity

## QVQLVESGGGLVQAGGSLRLSCAASGFTFNAYAMGWYRQAPGKERELVAAINVSGGITYYADSVKGRFTISRDIAKNTVYLQMNSLKPEDTAVYYCAADVEWTSRGSYYRYYYWGQGTQVTVSS
  polyreactivity (PSR sort gate): low polyreactivity

## QVQLVESGGGLVQAGGSLRLSCAASGLIFTYYAMGWYRQAPGKERELVAAINYSGGSTYYADSVKGRFTISRDNAKNTVYLQMNSLKPEDTAVYYCAARRVTQTEGPMGYWGQGTQVTVSS
  polyreactivity (PSR sort gate): low polyreactivity

## QVQLVESGGGLVQAGRSLRLSCAASGFTFRGYAMGWYRQAPGKERELVAAISVRGDSTYYADSVKGRFTISRDNAKNTVYLQMNSLKPEDTAVYYCNAALLGKQYYSNPNYDYWGQGTQVTVSS
  polyreactivity (PSR sort gate): high polyreactivity

## QVQLVESGGGLVQAGGSLRLSCAASGRTFRWYAMGWYRQAPGKEMELVAALTFRGGRTYYADSVKGRFTISRDNAKNTVYLQMNSLKPEDTAVYYCNAVTYSSPYRFDYWGQGTQVTVSS
  polyreactivity (PSR sort gate): low polyreactivity

## QVQLVESGGGIVQAGGSLRLSCAASGSIIGPNTMGWYRQAPGKERELVAAIRGGGSTNYADSVKGRFTISRDNAKNTVYLQMNSLKPEDTAVYYCNATWNLFPGVLDRYDYWGQGTQVTVSS
  polyreactivity (PSR sort gate): low polyreactivity

## QVQLVESGGGLVQAGGSLRLSCAASGITFYYYAMGWYRQAPGKERELVAAISRSGGRTYYADSVKGRFTISRDNAKNTVYLQMNSLKPEDTAVYYCAAVRYQGGDSSIEYDYWGQGTQVTVSS
  polyreactivity (PSR sort gate): high polyreactivity

## QVQLVESGGGLVQAGGSLRLSCAASGSTIYSYAMGWYRQAPGKERELVAAISWSGARTYYADSVKGRFTISRDIAKNTVYLQMNSLKPEDTAVYYCAASGYYSSHMDYWGQGTQVTVSS
  polyreactivity (PSR sort gate): high polyreactivity

## QVQLVESGGGLVQAGGSLRLSCPASGRIFYRYAMGWYRQEPGKERELVADITWRGGRTYYADSVKGRFTISRDNAKNTVYLQMNSLKPEDTAVYYCAATGGFSWSRDYWGQGTQVTVSS
  polyreactivity (PSR sort gate): low polyreactivity

## QVQLVESGGGLVQAGGSLRLSCAASGNILRGYAMGWYRQAPGKERELVAAINRGGGSTYYADSVKGRFTISRDNAKNTVYLQMNSLKPEDTAVYYCAARYPHRGYTFDYWGQGTQVTVSS
  polyreactivity (PSR sort gate): low polyreactivity

## QVHLVESGGGKVQAGGRLRLSCAASGSTFFRYAMGWYRQAPGKERELVAAISWSGGTTYYADSVKGRFPISRDIAKNTVYLQMNSLKPEDTAVYYCNAVRQGHILDYWGQGTQVTVSS
  polyreactivity (PSR sort gate): low polyreactivity

## QVQLVESGGGLVQAGGSLRLSCAASGFTFPWYAMGWYRQAPGKERELVAAISTSGGSTYYADSVKGRFTISRDNAKNTVYLQMNSLKPEDTAVYYCAVGRKFGRYRVPFVVPYEYWGQGTQVTVSS
  polyreactivity (PSR sort gate): high polyreactivity

## QVQLQESGGGLVQAGGSLRLSCAASGTIFCLWAMGWYCQAPGKERELVASISSGGTTYHADSVKGRFTISRDNAKNTVYLQMNSLKPEDTAVYYSAAFYVATAKLGYWGQGSQVTVSS
  polyreactivity (PSR sort gate): low polyreactivity

## QVQLVESGGGLVQAGGILRLSCAASGITFPANAMGWYRQAPGKQRELVAAISSYGGSTYYADSVKGRFTISRDNAKNNVYFQMNSLKPEDTAVYYCAAYLSSLGRKYYYWGQGTQVTVSS
  polyreactivity (PSR sort gate): high polyreactivity

## QVQLVESGGGLDQAGGSLRLSCAASGFIFFRYAMGWYRQAPRKEREMVAAISSSGGSTYYADSVKGRFTISRDNAKNTVYLQMNSLKPEDTAVYFCAAPRYPIFVGLGKDYWGQGTQVTVSS
  polyreactivity (PSR sort gate): high polyreactivity
